Results: paper PMC7145681 (Nucleic Acids Research, 2019)
Where a chain is given by its changes, count along the chain named. Names may count otherwise. Where two headings read alike, the source gives them in different places.

Columns and labels:
SP_0782 [1] = biological target: T1, SP_0782 (Streptococcus pneumoniae, UniProt A0A0H2UPA7 7-79); test: ITC
SEC-MALS = biological target: the molecule itself; test: SEC-MALS
SP_0782 [2] = biological target: T1, SP_0782; test: X-ray crystallography
SP_0782 [3] = biological target: T1, SP_0782; test: ITC; remark: listed apart in the source

B1: dT6 (ssDNA)
DNA: TTTTTT
SP_0782 [1]
  Kd: 26.8 µM

B2: SP_0782 (7–79) W30A mutant (domain or fragment, Streptococcus pneumoniae, UniProt A0A0H2UPA7 7-79, looked up)
chain: KKMAEFTFEIEEHLLTLSENEKGATKEINRVSFNGAPAKFDIRAWSPDHTKMGKGITLSNEEFQTMVDAFKGN
SEC-MALS
  stoichiometry N: 2

B3: SP_0782 (7–79) wild-type from Streptococcus pneumoniae (domain or fragment, UniProt A0A0H2UPA7 7-79, looked up)
chain: B2 chain with A24W
SEC-MALS
  stoichiometry N: 2

B4: dTCTTCC (ssDNA)
DNA: TCTTCC
SP_0782 [2]
  binding result: binds

B5: dT12 (ssDNA)
DNA: TTTTTTTTTTTT
SP_0782 [3]
  Kd: 0.0206 µM
